Experimental data: a protein production outcome set (Wang et al. 2014)

Assay: label from the status in PepcDB records

Sequence | protein production
MPLCLRNAQQDDTQRLSQIARQTFALACPPDTPATEIEAFIQENLLPEHFSALLEAPGKQLRVLLDDNRVIGYSLVNLHPQDLGVAGADGIAELTRCYLDAAHHGSGAAQFLLAQTLAQQPGPLRLTVNEHNARAIRFYQRNGFVRVGETLFPCGADLHRDWVMLRR | failed
MPLGHLFDKSYDEMHCNQKNWEMAERKLMEDAVQSALSKQNLKKEDIDIFLAGDLLNQNVTANYVARHLKIPFLCLFGACSTSMESIAISSALIDGGFAKRALAATSSHNATAERQFRYPTEYGGQKPGTATSTVTGSGAVVLSQQPGGIKITSATVGRVIDLGITDSQDMGSAMAPAAADTIKQHLEDLGRTPDDYDLILTGDLSGVGSPILKDLLKEEGINVGTKHNDCGLMIYTPDQQVFAGGSGCACSAVVTFAHIFKEIEAGRLNRVLVVATGALLSPTIIQQKESIPCIAHGVVFERAERGNALEHHHHHH | not failed
MPLHNLTRFPRLEFIGAPTPLEYLPRFSDYLGREIFIKRDDVTPMAMGGNKLRKLEFLAADALREGADTLITAGAIQSNHVRQTAAVAAKLGLHCVALLENPIGTTAENYLTNGNRLLLDLFNTQIEMCDALTDPNAQLEELATRVEAQGFRPYVIPVGGSNALGALGYVESALEIAQQCEGAVNISSVVVASGSAGTHAGLAVGLEHLMPESELIGVTVSRSVADQLPKVVNLQQAIAKELELTASAEILLWDDYFAPGYGVPNDEGMEAVKLLARLEGILLDPVYTGKAMAGLIDGISQKRFKDEGPILFIHTGGAPALFAYHPHV | failed
MPLKRLGHRVLGLVLAAMLLYGGLAPPVRNFFALPWQQRLPAAAPISLPWELPPGLARQVEVKVNSGDWSRATTGDFPRWLQLQLKLFGFIPLKNITIQLVQPVDVSPGGQAIGVFLKTEGVQVVGQAAIVDERGNKVYLARQAGLETGDAIIAIDGQKVTSDQEVANLINAAGQANRQARITVKREGHLLTLNIHPRYCQETGRYRIGVYVRDSTAGVGTLTFYDQNKGVFGALGHVVTGSDGQTAMDISGGRIVAAAIQGIHQGYRGQPGEKLGVFLENGQFSGTIQKNTIVGIFGTITGKLPGNKEIPVALADTVHPGPAEILTVIEGEKVESFQVEIERVMPHQRASGKGLVLRITDPRLLAVTGGIIQGMSGSPIIQDGQLAGAVTHVFINDPTRGYGVLAEWMLQETELVPKDKARGATVETPGSFLFVVFCVG | failed
MPLPPDITFDSLALIKMHSQNMKRILEVTLAKFTVNLSIVTVYRYLTARAYLKKNIEAEFEILKDIYNIVPLLDDIAIKAAQIEANLIKKEITLDMEDIITATTAIYTNSLLVTDDPKRYEPIRRFGLDTMPLDKFIKEVELMVEKELI | not failed
MPLRCTKPLGATPATPTAPPTGRKGHQVAINGFITWILVTMSLVVYFLWAFIPTSFLDMVLASYYPDKYWAVAIPAILVMTMVYYLTVHFLLMLYRTDPLTDGFCVAQTNGAVRHESIENLVDVEDGVPPITDIPVSVASRLLFQPWN | failed
MPLVNSHIVEECLPFTSLRLDPEDINLSMGAGYVPDAEIQAISDALETEIAGICTPRFLYALFDAEPAGTCEVGVNGISLKTGSVITPYLKDAAGYVLFVATAGYEFEAFQHRIGSQGDILREFLLDAYGSAIAEAVVREVCRKVESRMFPLGYGVSHPYSPGYCGWHVTQQQLLFSCLPEFPCGVRLSDSSLMSPIKSVSGIIAYGPCIVKRKYGCELCGKADCYKNRNKLNRLEHHHHHH | not failed
MPLVSMKEMLNKALEGKYAVGQFNMNNLEWTQAILAAAEEEKSPVILGVSEGAARHMTGFKTVVAMVKALIEEMNITVPVAIHLDHGSSFEKCKEAIDAGFTSVMIDASHHPFEENVETTKKVVEYAHARNVSVEAELGTVGGQEDDVIAEGVIYADPAECKHLVEATGIDCLAPALGSVHGPYKGEPNLGFAEMEQVRDFTGVPLVLHGGTGIPTADIEKAISLGTSKINVNTENQIEFTKAVREVLNKDQEVYDPRKFIGPGRDAIKATVIGKIREFGSNGKA | not failed
MPMMNLIYLHGFRSSSLSIKGQQLKHYCQAFPYIQVHLPDLNLPPHEVIKKIENMIQSMDQVALIGSSLGGFYATQLVAKYQIPAVLINPAMRPWQLFRQLFSDQTLPYTVCETWTLDEQQLTEMEKIAVPVVQAADKILVLLQQGDEVLDYREAERYYSQPAHPSLIFTDAHGNHAMEDFENKLPLILAFL | failed
MPNDTHAQTGASGPTTLFTNANVLTVDAEFSTAQAIAIRGNRILAVGSDAEVRAAAGDDATVVDLEGKTVLPGFIDAHAHAVSGSVVDAIMDYVGMARFTTVDEVLNHIATRAAKTPAGDWLVFRNFDPAVQEGADALTFAELDPISTDHPIFILNASGHLAYANSRAFEVSGLTNDVPNPPGGEFVRDADGNLTGTIKNNVAFLQIAENYPAMKQVNPVEGLLGLLGKWSQQGLTTVSELSLGALAQSPADVQVMAAAAQSGRMTARLRAYPFYTLGTETWDNAGVKQGDGNALARVAGYKLVADGSNQGFTGLQREPYLNREDRGLAYMEPDELTTTALERAGKGWHLAIHGNGDAAIDNILDTCQALADAGIDMARVRPRIEHCSILHDEQIARMKALGVSASFLIGHVHYWGVAMRDQVFGLEKAQLLDRCKSVEEAGVGFTLHSDFMVTDPNPLHMIEMAVTRRTWKEPDYVLAPQERISVDSAIRAMTSEAAWQLFSDHEIGSLEPGKLADMVILDQDPRKVAPDEIKAIKVLETWMDGQRVFAA | failed
MPNHDYRELAAVFAGGALGALARAALSALAIPDPARWPWPTFTVNVVGAFLVGYFTTRLLERLPLSSYRRPLLGTGLCGGLTTFSTMQVETISMIEHGHWGLAAAYSVVSITLGLLAVHLATVLVRRVRIRR | failed
MPNILYKIDNQYPYFTKNEKKIAQFILNYPHKVVNMTSQEIANQLETSSTSIIRLSKKVTPGGFNELKTRLSKFLPKEVTQYNVELVDNESTISLKNKLHSRSKAAL | not failed
MPNSRLEGELPGGGVVTFDTDLPIAAHADEIADLIKHHQVVVVAGETGSGKTTQLPKICLALGRRQIAHTQPRRIAARSVAERVAEEMGVELGEQVGYQVRFTRRASSDTALTVMTDGVLLAEISHDRDLCAHDTIIIDEAHERSLNIDFLLGYLKQLLPRRPDLKVIITSATIDTARFSAHFDDAPVIEVSGRTYPVEVRYRPLDPSEQIRPDDEDDIDDEDELLHRPSAPSLTSPDDEVVDQVTGICRAVQELCREESGDILVFLAGEQEIRETAEALADLNLSNTEVLPLFARLSAAEQHRVFTPHTGRRIVLATNVAETSLTVPGIRYVIDPGTARISRYSVRTKVQRLPIEPVSQASANQRAGRCGRVAPGICIRLYSQTSFESRPEFTEPEILRTNLAAVILQMAQARLGAITDFPFVEAPDRSRINDGIRLLDELGALKPGHRDASRLTKIGHQLARVPLDPRLGRMLLEGARQGSLAEVLVIVAALSIRDVRERPADKREEADAFHRRFATEANLLQTLQAADNTDNNQVGDWSQVRRQHIHQEAANTAKPGPPARHTPHTRGKISPRPQAGGIDEGGDIMAIHRLWRYLRHQRRQMGSSAFRRMCRAEYINYLRVREWDDLHGQLRQIAKELHLEVNRTSAPTDRVLVALLSGLLSHIGLVQVRQPAKRHGQRPGPQEYLGARGTKFAINPGSLLARKSPELVVAVELVETSRLWARTVAAVQPEWVEEVAGPLIRRSWAVPHWAASTASVVATERGTLFGVPLWADRRVTYGRIDPVASRQIFIRSALVERNWRSDHGFLKHNDRVRDEAADLEERSRQRGLVADDDAIFAFYDRRIPDGIVSGSHFDAWWRRVQDRHQLDLSIDDLVDSGSVDADAFPDHWKVGNLELPVRYVFEPGSGHDGVTVTIPLALLNQVPTAPFSWQVPGLRTELATELIRALPKRIRTQLVPAPDRARAALTWLEDHDADRHAPFTNELGRALRTLTGVIINPDDWNIAAIPAHLRIGFDITDAEGRPVGKKSKKNGKDKLKGSQPAPIARSEDLDALQTDLAPKVSQSLTKAAGQPQIHGAKEWTFDPIPKRVDLSRKGPDAVGYPCLVDEGDSVGTTVLDTPRAQRTSHASGVVKLLVLNLPDPTKWVVTHMDNATKLALATSPYPSVPALLADARHKAVASVAQEKAGDLSGIRDKKTFDDLALVVRQDQADRMARVVRTAGRILSRVVAARQALATVSDPAIHADIVAQIDDLVFENFISATPDPWYDDMPRWIQGVSVRIESLMTNPSRDPRQMAELEPLLADYDALCEEQPAGKLPAEVEEIGFMLEELRVQYFAQKLGTRVSVSPKRIRMAIAKLS | failed
MPPELNWQEIDTVLLDMDGTLLDLEFDSHFWLKQVPETLSQRRGISLEQAHKIIHDEYLAVQHTLNWYCFDYWSERLDLDIYAMTTQAGNRVRLRQDTQPFLASLRERGLQTILLTNAHPHSLAVKIEHTALDQHLDLLLSTHTFGYPKEDQRLWQAVTQHTGLNPARTLFVDDSEKILDAARTFGIRYCLGIENPDSSCADKAFHSHPAINDYRKLLPALELRK | failed
MPPIIKRRVMRKIIIASQNPAKVNAVRSAFSTVFPDQEWEFIGVSVPSEVADQPMSDEETKQGALNRVRNAKQRHPGAEYYVGLEAGIEENKTFAWMIVESDQQRGESRSACLMLPPLVLERLRQAKELGDVMDEVFGTENIKQKGGAIGLLTRHHLTRSTVYHQALILALIPFINPEHYPSA | not failed
MPPQPDAAPPPLPPELAPLLPTDPVTIGPFRVIGRLGSGGMGAVYGALDAEHRCVAVKVIHAEHVRRPEYRELFAREAELVSRIDAECTPRFLGADPNAPEPWLATEFVPGRTLQQHVREFGPLDEAALRAFAAGTAEALAAIHAAGVVHLDVKPGNIMLAPDGPKVLDFGIARAIGDTTDKNVYGTPGWAAPERLDRQPGTPAADMFAWGGLIVFAATGRSPFGTGTSAELLERVRAGDCDLTGVPEELMELVARALSTDPEARPTAVEAFHTVLALDTVAADAIEEPGEDAAAIHRKRLRALLHRVWTGFDAAGHRPELWMALGTAAGGVGVAAGGAAALATQGTAGGGAAAGSGKLVGTASAAGGGASWGAGAGTLTKSATVTAAGTGLSGKAMLTVAAGATAAAVAGGWLVGRAVTDQPLLPFTDPEPSATAALAPSPEEDEKEGQEVRFRNLTLWFPEDWTVHVIEDIEFVGFGPDHEGREIVDDWIAAHPPGNPGCAEVDWNHWEWPAALVECPHIRILGPGGITYGGAVYEPITEEPDAGLFAPSQNPLPCIPGIDAYEADPASFPGQSPLVEELAPVGDRSALYREYLTPCGNPDGRDPELLYYTQRSWFLPESQILIVDEYGIEDIDAILADGEFASRSEED | failed
MPQIQSSHSNHFDFTIDTADRTKLLMSYLVVPTTANFNNVMHGGELLNLLDKVAYVCSTRYCAKGTVTLSVDGVTFKYPIPVGNLLTFLASINYVGNTSCEVGIKVLSEDIKTREITHTNSCYFTMVAVENGKPTPMPKYEPKTEVEIRRYEGALKRKEMRTRGYLKSGKHEGV | failed
MPQIYFSAAERRPKFVMKTGLSATEKNEVIKAAYRQIFERDITRAYSLSISDLESKVKNGDISMKEFVRRLAKSPLYQKQFYQPFINSRVIELAFRHILGRGPSSREEVQKYFSIISNGGLPALVDALVDSAEYSDYFGEETVPYLRGLEHHHHHH | failed
